The values that follow come from patent publication US20210403591A1 (OSSIANIX, published 2021).

The target of test [1] is T1, purified WT mTfR-1 (ELISA coat) (mouse, UniProt Q62351 89-763). Put plainly: ELISA, coated purified WT mTfR1. The protocol:
Serial dilutions the VNAR-Fc fusion protein in blocking buffer (PBS-0.1% Tween+2.5% milk) were exposed to pre-blocked Nunc Maxisorp 96-well plates coated with the M1, M2 and M3 mutants at 1 μg/mL. After washing in PBS-0.1% Tween-20, binding of Clone C-hFc fusion was detected using an anti-human IgG (Fc specific) peroxidase antibody (Sigma-Aldrich) and the plates were developed using the chromogenic substrate TMB. Absorbance at 450 nm was recorded using an Envision multi-well reader (Perkin Elmer) and EC50s were calculated by fitting curves (non-linear regression) using GraphPad Prism®.
The binding of Clone C compared to the 8D3 antibody was tested on purified WT mTfR1 in addition to the three mutants by ELISA (FIG. 26).

For test [2], the target named is T1, purified WT mTfR-1 (ELISA coat). Put plainly: ELISA, coated purified mTfR-1.
Test [3] deals with T2, purified mTfR1 mutant M1 (AGS) (mouse, UniProt Q62351 89-763).
T2 construct: also called N253A
Put plainly: ELISA, coated purified mTfR-1.

Test [4] has as its target T3, purified mTfR1 mutant M2 (NAS) (mouse, UniProt Q62351 89-763).
T3 construct: also called G254A
Briefly: ELISA, coated purified mTfR-1. A general note: ELISA stands for enzyme-linked immunosorbent assay.

In test [5] the target is T4, purified mTfR1 mutant M3 (NGA) (mouse, UniProt Q62351 89-763).
T4 construct: also called S255A
Briefly: ELISA, coated purified mTfR-1.

In test [6] the target is T3, purified mTfR1 mutant M2 (NAS). Briefly: ELISA, plate coated with purified mTfR-1 mutant M2 (NAS), serial dilution of the binder; y axis Norm. Vmax OD at 650nm.
In test [7] the target is T1, purified WT mTfR-1 (ELISA coat). Put plainly: ELISA, coated purified mTfR-1. The source holds these as a separate data set.
Test [8] addresses T2, purified mTfR1 mutant M1 (AGS). Briefly: ELISA, coated purified mTfR-1. The source holds these as a separate data set.
Test [9] deals with T3, purified mTfR1 mutant M2 (NAS). Put plainly: ELISA, coated purified mTfR-1. This is another data set of the same source.

Where a chain is given by its changes, count along the chain named. Read-outs that look alike come from different tables or passages of the source.

T1 sequence (Q62351 89-763): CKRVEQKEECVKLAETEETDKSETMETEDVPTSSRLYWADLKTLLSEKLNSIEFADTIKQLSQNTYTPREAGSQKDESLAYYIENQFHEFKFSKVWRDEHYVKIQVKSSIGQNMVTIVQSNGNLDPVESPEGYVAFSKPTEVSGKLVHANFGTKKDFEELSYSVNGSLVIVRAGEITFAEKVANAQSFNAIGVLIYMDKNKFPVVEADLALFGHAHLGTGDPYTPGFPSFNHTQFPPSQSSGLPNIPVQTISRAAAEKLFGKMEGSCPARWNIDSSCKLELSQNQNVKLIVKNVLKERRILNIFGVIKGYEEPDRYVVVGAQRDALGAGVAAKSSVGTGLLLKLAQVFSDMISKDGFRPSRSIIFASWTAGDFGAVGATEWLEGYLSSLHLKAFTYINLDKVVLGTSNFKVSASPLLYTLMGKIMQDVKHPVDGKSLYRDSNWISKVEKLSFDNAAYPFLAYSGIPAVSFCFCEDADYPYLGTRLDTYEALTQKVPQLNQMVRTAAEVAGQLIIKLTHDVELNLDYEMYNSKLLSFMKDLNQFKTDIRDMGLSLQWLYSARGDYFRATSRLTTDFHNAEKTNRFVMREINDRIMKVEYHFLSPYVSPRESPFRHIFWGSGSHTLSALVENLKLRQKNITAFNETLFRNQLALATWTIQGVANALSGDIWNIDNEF
T2 sequence (Q62351 other isoform, or with tags, fused parts or gaps mutant): as the sequence (Q62351 89-763) above, with N165A counted along it
T3 sequence (Q62351 other isoform, or with tags, fused parts or gaps mutant): as the sequence (Q62351 89-763) above, with G166A counted along it
T4 sequence (Q62351 other isoform, or with tags, fused parts or gaps mutant): as the sequence (Q62351 89-763) above, with S167A counted along it

B1: 8D3 antibody (anti-mouse TfR-1 control; 8D3-hFc formatted antibody) (antibody, V domains shown)
VH: EVQLVESGGGLVQPGNSLTLSCVASGFTFSNYGMHWIRQAPKKGLEWIAMIYYDSSKMNYADTVKGRFTISRDNSKNTLYLEMNSLRSEDTAMYYCAVPTSHYVVDVWGQGVSVTVSS
VL: DIQMTQSPASLSASLEEIVTITCQASQDIGNWLAWYQQKPGKSPQLLIYGATSLADGVPSRFSGSRSGTQFSLKISRVQVEDIGIYYCLQAYNTPWTFGGGTKLELK
For B1, the EC50 in [1] turned out to be 11.1 nM; in [2] it was 0.49 nM; in test [3] it was 0.35 nM; in test [4], 0.33 nM; in test [5], 0.51 nM. Moreover, in test [6], the “EC50 (read off the curve)” value is about 4 nM.

B2: Clone C VNAR-hFc fusion (Fc fusion, not shown: a dimerising Fc or GST)
chain: ARVDQTPQTITKETGESLTINCVLRDSNCALSSTYWYRKKSGSTNEENISKGGRYVETVNSGSKSFSLRINDLTVEDSGTYRCNVVQYPSYNNYFWCDVYGDGTAVTVN
notes: bivalent VNAR-Fc; also called Clone C-hFc
In test [1], B2 showed an EC50 of 65.4 nM.

B3: Clone C variant 18 VNAR-hFc (Fc fusion, not shown: a dimerising Fc or GST)
chain: B2 chain with S90Q, N92P
notes: also called Clone C v18; Clone C var; 18
Regarding B3, the figures for the EC50 in test [7], in test [8] and in [9] were 0.69 nM, 5.9 nM and 200 nM, respectively.

B4: Clone C variant 13 VNAR-hFc (Fc fusion, not shown: a dimerising Fc or GST)
chain: B2 chain with S90Q, Y91Q, N92D
notes: also called Clone C v13; Clone C var; 13
As to B4, the EC50 in [7] is 0.8 nM; in [8], 1.1 nM; in test [9], 13 nM.

For orientation: EC50 means the concentration that produces a half-maximal response. Higher therefore signals a need for much substance. One may read the EC50 (read off the curve) as the concentration at which the effect is half-maximal. A high value points to a less potent agent.
